In the experiment the target is C57BL/6 and BALB/c IL-4Rs on transfected TF-1 cells (association rates told for both together). Description: radioligand binding.

For one substance, kon results are on record in article PMC2199121.

For orientation: kon means the second-order rate constant of association. Low readings indicate slow association, high ones fast association. Substance “iodinated recombinant murine IL-4 (125I-IL-4) (from UniProt P07750 21-140) (ligand)” gave a kon of 3.33e+06 to 4.33e+06 M⁻¹ s⁻¹.
